assay: label from the status in PepcDB records

Row | Sequence | protein production
1 | MDSDADGGETVSNFSENSTDFEETEEYIVERILDRRHYMGQLQYLVKWLDYSDEDNTWESAADLDCHSLIDSIESQKSLKRGQELNNQYETKAKRLKIDP | failed
2 | MDSQSENGSGAGNRTSIERRGDRELVVTRTFDAPRAMVYRAWSEPELFRRWWMPKSATGVTLVSCDMDVRTGGKYRLEFSTGGPQTMAFYGKYLDVVPNERIVWTNDEGEADAGEKGAITTVTFEDHGSQTLLRFHEVYPTAEALEEALQGSAAALPEQFDQLGEVLSGSGGKQ | failed
3 | MDTAASPLTYRDATDADVDALVALIESAYRGDASRAGWTTEADILQGQRTDPQGVLEVVKAPDSRLLTVERDGRIVACCQLEHRGAHAYFGMFAVSPALQGAGLGKAIIAEAERQARTTWGVTEMHMTVISVRDDLIAWYERRGYRRTGETTPFPYGDERFGIPQRADLRFELLVKPLV | failed
4 | MDTAVVYYVLATALVLIGLAGVILPALPGLPLVFAGLLVAAWADNFTHIGWVTLVVLGLITALSYLVDFLATLYGAQRVGASKMALWGSVIGGIAGIFFMPIGLFIGPFAGAWLGEYYQTRKSGQATKVGIGTWVGIMLGTATKLALGLCMLGAFAIGWFF | failed
5 | MDTMSQILKLLEKTDSIEINEFRMDVDELELTIMPTLQNVVQKVVEKQIEAKKEFESQIEFKYPVKDYAGKVNEVKLGGKNRKTVKLGGQTSLYRFEEPQPNAPTVTFDVFDIPMNGLPRPIKENFEDVMHSPGEWAQKAVKEFGADMITLHLIGTDPKVKDKSLKDAAKDLEEVLQAVKVPLVIGGSGNPKKDPLVLEMAAEVADGERCLLASANLDLDYQKIAQAAVKHDHAVLSWAISDINMQKVLNKALMKEGLTANDIVMDPTTCALGYGIEFSIDVMTRTRLSALKGDEILQMPMSSGTTNAWGSREAWMKKDEWGPTKYRGPIWEVVTGLTMMLCGVDIFMMLHPLSVKTLKEIGTTLTYEYKSKESQDISDWINKF | not failed
6 | MDTPSRRSFLLAGGSFAIGVGAGLGIAHRDDVLPSRVVWAFETTGRIVSSPTVGDGTVYVGSDDSTVHSVSTSDGTRRTTARLHTKAGVFSSPALGADGGLYVGSTDTAIYGLFSSPGARDEWRFETTDWVTASPAVADGTVYVGSTDGTMYALNAETGAEQWRFETGDGIVSSPAVVDGTVYVGSTDGTVYALDADSGTDRWQFDTEGRVYSSPTVADGTVYVGSYDANIYAIDTTDGVEQWQFETGDSIWSSPTVLEETLWIGSKDAALYAVATEDGSEQWRFPTGGEVNSSPTVAGETVYVGSDDANLYAVAASDGSERWTFETGGAVQSSPTVADGTVYVGSGDSTLYALDADETGSSEGSRAELRTLGYFAE | failed
7 | MDTRKNVSGAERKIWSLIRDCSGKLEGVTETSVLEVLLIVSRVLGIRKEDLFLKDLGVSPTEEKRILELVEKRASGYPLHYILGEKEFMGLSFLVEEGVFVPRPETEELVELALELIRKYGIKTVADIGTGSGAIGVSVAKFSDAIVFATDVSSKAVEIARKNAERHGVSDRFFVRKGEFLEPFKEKFASIEMILSNPPYVKSSAHLPKDVLFEPPEALFGGEDGLDFYREFFGRYDTSGKIVLMEIGEDQVEELKKIVSDTVFLKDSAGKYRFLLLNRRSS | not failed
8 | MDTSRLRPTSPLVRQAAACLDAGEADHADVLLDLHLSRHPEDSAGLILFGLTRVALGRPLEAEQPLRRALALDPIDDPFHARAVCALVDVLKAQGRMAEVSEVLERAGDVAPMNAVFPRMLGAHYRALGQVGAAITAARRAVAVESADGENWRGLAATLLGGAPGEALEALERAKTCGDDGADWWNIRGVALAALGEGEAAREAFKNAILRDGAAPMAWTNLGNLEIRAARSADALERAVEAYGQAIRRAPDSFEAHNNLAQALRDLGRRDEALVHAERAASLRPHDVTVLNTQANILRGLRRVDEAVAILERALACDGRSAETHSNLGLALLAAQDRQRAEEHFRKAAALAPDCVDIIVNLACFLIHINAGKEVLGVLEPALARFPGDVGLLATLGLHYFQENAYEDCATVFETVLAKKPDHVEARASLGVVRWSQGRLVESLALAQSIREDFPEDIRTLFLLGCVHSDLMENASALEVFDLAVEKGGERVPPFHYSNCCFSFHYVEAMEKDDLFARHRRWDALYGAGATELSDVTHHNTRDPERRLRIGYVSPDFRRHSVAYFFLPLVGAHDRAAVEVTCYSLSTLTDQMTDLIREGCDRWRDITTLPAEKAAERVREDEIDILVDLSGHTANNGLSIFALKPAPVQVTYLGYPNTTGLSAIDYRLTDGFADPLGVDEDPASETLWRLPRSFLLFDEVPGLPDPAPPPVLSRGTITFGSFNNMAKVNRGCVAVWKRILDAVPGSRLLLKAKGFRDPATAKVLIERLIDWGVDPEQVSYAPYAKNLMEHVAVYAEVDIALDTFPYNGTTTTFEALHMGVPVIGLRGHRHSGRVGASILGNLGLADRLLGEDVDDMVAKAVALAGDLEGLMRMRAGLRERLRASPLQDGPGFVADLEGAYRAMWRRWCAGPPTFHRQPKNGMWAVEEMEDAIEPVLG | failed
9 | MDTTKTIAALFDFDGVIMDTETQYTVFWDEQGRKYLNEEDFGRRIKGQTLTQIYEKYFSDLPEAQQEITAGLNIYEKSMSYEYIPGVEAFIADLRKHGAKIAVVTSSNEEKMQNVYNAHPEFKGMVDRILTGEMFARSKPAPDCFLLGMEIFGATPENSYVFEDSFHGLQAGMTSGATVIGLATTNTREAITGKAHYIIDDFSEMTFEHLLALHR | failed
10 | MDVDTAFLNSTMDEPIYVKQPPGFVNERNPDYVWELYGGMYGLKQAPLLWNEHINNTLKKIGFCRHEGEHGLYFRSTSDGPIYIAVYVDDLLVAAPSPKIYDRVKQELTKLYSMKDLGKVDKFLGLNIHQSSNGDITLSLQDYIAKAASESEINTFKLTQTPLCNSKPLFETTSPHLKDITPYQSIVGQLLFCANTGRPDISYPVSLLSRFLREPRAIHLESARRVLRYLYTTRSMCLKYRSGSQLALTVYCDASHGAIHDLPHSTGGYVTLLAGAPVTWSSKKLKGVIPVPSTEAEYITASETVMEI | failed
11 | MDVEAWLDERVPLVETHHHHHHENLYFQSHMNHGANIFGVAFNTLLGKDEPQVFATAGSNRVTVYECPRQGGMQLLHCYADPDPDEVFYTCAWSYDLKTSSPLLAAAGYRGVIRVIDVEQNEAVGNYIGHGQAINELKFHPHKLQLLLSGSKDHAIRLWNIQSHVCIAILGGVEGHRDEVLSIDFNMRGDRIVSSGMDHSLKLWCLNTPEFHHKIELSNTFSQEKSTLPFPTVTKHFPDFSTRDIHRNYVDCVQWFGNFVLSKSCENAIVCWKPGQLHQSFEQVKPSDSSCTIIAEFEYDECEIWFVRFGFNPWQKVIALGNQQGKVYVWELDPSDPEGAHMTTLHNSRSVATVRQIAFSRDASVLVYVCDDATVWRWNRRQTTSI | failed
12 | MDVFSDRVLLTEESPIRKLVPFAEMAKKRGVRIHHLNIGQPDLKTPEVFFERIYENKPEVVYYSHSAGIWELREAFASYYKRRQRVDVKPENVLVTNGGSEAILFSFAVIANPGDEILVLEPFYANYNAFAKIAGVKLIPVTRRMEEGFAIPQNLESFINERTKGIVLSNPCNPTGVVYGKDEMRYLVEIAERHGLFLIVDEVYSEIVFRGEFASALSIESDKVVVIDSVSKKFSACGARVGCLITRNEELISHAMKLAQGRLAPPLLEQIGSVGLLNLDDSFFDFVRETYRERVETVLKKLEEHGLKRFTKPSGAFYITAELPVEDAEEFARWMLTDFNMDGETTMVAPLRGFYLTPGLGKKEIRIACVLEKDLLSRAIDVLMEGLKMFCSSRISC | not failed
13 | MDVLSLVGIILAFVAIVGGNFLEGGHAGALLNGPAALIVIGGTLAAALLQTPVNVLKRGLGMLGWVFFPPREDLSGGIDRIVSWSMTARKEGLLGLESIADAEPDPYARKGLQLLVDGAEPEVIRSILEVDLFTQESRDLQAAKVFESMGGYAPTIGIIGAVMGLIHVMGNLANPAQLGSGIAVAFVATIYGVGFANLLLLPIGNKLKTLVLRQSRYREMLLEGLLSIAEGENPRSIELKLQGFMD | failed
14 | MDVLTDQDVQKFRDEGYLVLEGLLSPEECDALRRRMSEIIESMDVPEHCRTQFSTDHDEQLKTQGNADYFITSGDKIRFFFEKGVFDDKGEFVVPKEQSLNKIGHALHAYEPLFKRVTHSPKVQNICKKLELINPVILQSMYIFKQPGIGGEVTPHQDATFLYTQPLGRVMGVWVALEDAMQENGCLWFIPGSHNDGITRRMVRTPKGTFPLTDFIGREKDYDDKLFVPAPVKKGGAVLIHGEVVHRSAANTSDASRHVYTFHIMESENTVWSPENWLQATEELPFPSLYT | failed
15 | MDVSFEFEHYQVRLIKSSDAVTIANYFMRNRHHLAPWEPKRSHAFFTPEGWKQRLLQLVELHKHNLAFYFVVVDKNEHKIIGTVSYSNITRFPFHAGHVGYSLDSEYQGKGIMRRAVNVTIDWMFKAQNLHRIMAAYIPRNEKSAKVLAALGFVKEGEAKKYLYINGAWEDHILTSKINDDWKP | not failed
16 | MDYLVKALAYDGKVRAYAARTTDMVNEGQRRHGTWPTASAALGRTMTASLMLGAMLKGDDKLTVKIEGGGPIGAIVADANAKGEVRAYVSNPQVHFDLNEQGKLDVRRAVGTNGTLSVVKDLGLREFFTGQVEIVSGELGDDFTYYLVSSEQVPSSVGVGVLVNPDNTILAAGGFIIQLMPGTDDETITKIEQRLSQVEPISKLIQKGLTPEEILEEVLGEKPEILETMPVRFHCPCSKERFETAILGLGKKEIQDMIEEDGQAEAVCHFCNEKYLFTKEELEGLRDQTTR | not failed
17 | MEANSGGGGGAEGGRAVTGGGGGGGGSDVELVSKTLQVEHKLFYFDLKENPRGRYLKISEKTSATRSTIIVPSSGISWFLDLFNYYVNSEEHELFSKELQLDSKVFYFDIGENRRGRFLKVSEASVSRNRSTIIVPAGSSPDEGWAAFRNILAEIHEASGLFVMPNQKPSDGQEHLVDDVGAGFIPGHGSQQPSSSEHNVDRTIDSPGSDRSSIILPLSGLKQFHEVIGHFVEITKDKIEVLILLEDGNFQSSNHLNLATSSRLPDRGVQ | failed
18 | MEATEKLREKPIKSLFISYLIPAVLGMVLMSVNIVIDAVMISRGVGANGLAGVNVAIPAFSIFFSISLWIGMGGATLYSIALGENKIERARSIFTQSMTVAVIIVGVLAAICLWRIEDLAYVFGANEVILPYALDYLHVLLTFGMIYVLENILSTFIRNDGNPNLAMAGLVVTAVLNIVFDYIFIFIFKWGVTGAASATILSAAIGFLVLLTHFFRKSSILKWTKFHFEWDTVKQIMIIGFPSFTAESTVAIVTIGFNIAFVQYAGEVGVASYAMVNSIHAMTLLLFFGVGAALQPIASFHYGANLAERLREGLQFAVKIAVVLGGVAIIVGLFFGKYIIGLFDVQSPELLELTLTGMSLFFIQYVFLGYNIVYGEYFQSVRQTTKSVLIIMSRGLLFIIPLLWIMPKLFGINGIWLVMPVAEVLTAIIVFTMNRMKHPVPLNMAGEKEAI | failed
19 | MEATEKLREKPIKSLFISYLIPAVLGMVLMSVNIVIDAVMISRGVGANGLAGVNVAIPAFSIFFSISLWIGMGGATLYSIALGENKRERARSIFTQSMTVAVVIVGILAAICLWRIEDLAYLFGANEVILPYALDYLHVLLTFGMIYVLENILSTFIRNDGNPNLAMAGLVVTAVLNIVFDYIFIFIFGWGVTGAASATILSAAIGFLVLLTHFFRKSSILKWTKFHFEWDTVKQIMVIGFPSFTAESTVAIVTIGFNIAFVQYAGEVGVASYAMVNSIHAMTLLLFFGVGAALQPIASFHYGANLSERLREGLKFAVKIAVVLGGIAIIVGLFFGKYIIGLFDVQSPELLELTLTGISLFFIQYVFLGYNIVYGEYFQSVRQTKKSVLIIMSRGLLFIIPLLWIMPKLFGINGIWLVMPVAEVMTAIIVFTMNRMKHPVPLNMAGEKEAI | not failed
20 | MEATNKMKVEVWSDIMCPFCYIGKRNYEAGLKQFADSNNIEIIWKSFQLDPNIPQDTAVTENVYQYLAERKGMSYEQSVQMHDSVVATAKKAGLDYNFDKAVIANSFNAHRMIQLAKTKDLGDAAEERLFYAYFTEGKNVGNSYVLIELGKDIGLTEAEVQTALTDDTYAYKVRQDVEEAQHLGVRGVPFFVFDRKYAVSGAQPPQAFLETLEKSFSEWRKEHPASPFEVSEGPSCSVDGCD | not failed
